Experimental data published in patent publication US20220170038A1 (COMMONWEALTH SCIENTIFIC INDUSTRIAL RESEARCH ORGANISATION, published 2022).

T1: scar9::GG::NifU::HA (MPP-processed product of the MTP-FAγ51::NifU::HA fusion polypeptide encoded by SN32) (Klebsiella oxytoca, UniProt P05343 1-274)
T1 construct: also called scar9::NifU::HA; processed NifU
T1 sequence: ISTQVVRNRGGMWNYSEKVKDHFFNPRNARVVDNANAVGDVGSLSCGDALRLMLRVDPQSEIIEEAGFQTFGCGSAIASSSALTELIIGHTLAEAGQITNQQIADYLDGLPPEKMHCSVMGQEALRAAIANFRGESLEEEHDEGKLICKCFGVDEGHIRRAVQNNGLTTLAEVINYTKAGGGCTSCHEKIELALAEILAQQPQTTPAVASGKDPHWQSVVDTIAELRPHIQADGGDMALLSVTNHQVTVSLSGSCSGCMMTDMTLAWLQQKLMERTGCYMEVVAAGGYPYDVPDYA

T2: scar9::GG::NifS::HA (MPP-processed product of the MTP-FAγ51::NifS::HA fusion polypeptide encoded by SN31) (Klebsiella oxytoca, UniProt P05344 1-397)
T2 construct: This processed form was the one found in the eluate with NifU::TS; also called scar9-NifS::HA; processed NifS
T2 sequence: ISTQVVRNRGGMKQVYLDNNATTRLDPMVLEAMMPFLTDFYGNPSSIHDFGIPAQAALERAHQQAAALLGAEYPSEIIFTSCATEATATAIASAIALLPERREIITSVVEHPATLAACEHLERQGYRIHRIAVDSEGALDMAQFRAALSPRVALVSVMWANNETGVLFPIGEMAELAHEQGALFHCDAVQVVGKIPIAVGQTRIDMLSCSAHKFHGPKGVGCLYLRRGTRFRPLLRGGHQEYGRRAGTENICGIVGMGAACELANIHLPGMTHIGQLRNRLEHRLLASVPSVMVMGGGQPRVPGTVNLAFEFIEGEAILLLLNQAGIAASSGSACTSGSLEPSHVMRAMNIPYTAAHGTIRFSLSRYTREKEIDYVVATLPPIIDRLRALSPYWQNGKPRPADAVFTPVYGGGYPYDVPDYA

B1: MTP-FAγ51::NifS::HA fusion polypeptide encoded by SN31, unprocessed form (enzyme)
chain: MMAMAVFRREGRRLLPSIAARPIAAIRSPLSSDQEEGLLGVRSISTQVVRNRGGMKQVYLDNNATTRLDPMVLEAMMPFLTDFYGNPSSIHDFGIPAQAALERAHQQAAALLGAEYPSEIIFTSCATEATATAIASAIALLPERREIITSVVEHPATLAACEHLERQGYRIHRIAVDSEGALDMAQFRAALSPRVALVSVMWANNETGVLFPIGEMAELAHEQGALFHCDAVQVVGKIPIAVGQTRIDMLSCSAHKFHGPKGVGCLYLRRGTRFRPLLRGGHQEYGRRAGTENICGIVGMGAACELANIHLPGMTHIGQLRNRLEHRLLASVPSVMVMGGGQPRVPGTVNLAFEFIEGEAILLLLNQAGIAASSGSACTSGSLEPSHVMRAMNIPYTAAHGTIRFSLSRYTREKEIDYVVATLPPIIDRLRALSPYWQNGKPRPADAVFTPVYGGGYPYDVPDYA
notes: Present in the soluble input sample but not detected in the eluate; also called unprocessed NifS; unprocessed MTP-FAγ51::NifS
B2: scar9::NifS::TS (MPP-processed product of the MTP-FAγ51::NifS::TwinStrep fusion polypeptide encoded by SN231) (enzyme)
chain: not shown
notes: Bait in the reverse pull-down; the text names scar9::NifS::TS in the eluate; also called MTP-FAγ51::NifS::TS
B3: scar9::GG::NifU::TS (MPP-processed product of the MTP-FAγ51::NifU::TwinStrep fusion polypeptide encoded by SN166) (other)
chain: not shown
notes: Expressed in N. benthamiana leaves with mitochondrial targeting; N-terminal analysis and the tryptic peptide ISTQVVR confirmed cleavage at the intended MPP site; SEC indicated a heterotetramer of 2 NifS and 2 NifU; also called scar9-NifU::TS; scar9-NifU-TwinStrep

Assays:
[1] = target: B3; assay: StrepTactinXT pull-down of NifU::TS from N. benthamiana leaves co-infiltrated with SN31 and SN166, anaerobic non-denaturing extraction; anti-HA Western blot of the eluate
[2] = target: T1, scar9::GG::NifU::HA (MPP-processed …); assay: StrepTactinXT pull-down of NifS::TS from leaves co-infiltrated with SN231 and SN32; anti-Strep and anti-HA Western blots
[3] = target: T2, scar9::GG::NifS::HA (MPP-processed …); assay: StrepTactinXT pull-down of NifU::TS from leaves co-infiltrated with SN31 and SN166, first purification; anti-Strep and anti-HA Western blots

Does B1 bind [1]?
Result: no binding

Does B2 bind [2]?
Result: binds

Does B3 bind [3]?
Result: binds
